Residue numbers refer to the chain shown, from its start. Names may count otherwise.
B1: anti-oxMIF antibody C0008 (control antibody) (antibody, human IgG1, kappa, V domains shown)
VH: EVQLLESGGGLVQPGGSLRLSCAASGFTFSIYSMNWVRQAPGKGLEWVSSIGSSGGTTYYADSVKGRFTISRDNSKNTLYLQMNSLRAEDTAVYYCAGSQWLYGMDVWGQGTTVTVSS
VL: DIQMTQSPSSLSASVGDRVTITCRSSQRIMTYLNWYQQKPGKAPKLLIFVASHSQSGVPSRFRGSGSETDFTLTISGLQPEDSATYYCQQSFWTPLTFGGGTKVEIKR
notes: Human IgG with wt Fc
B2: anti-oxMIF antibody C0100 (antibody, human IgG1, kappa)
heavy: EVQLLESGGGLVQPGGSLRLSCAASGFTFSIYSMNWVRQAPGKGLEWVSSIGSSGGTTYYADSVKGRFTISRDNSKNTLYLQMNSLRAEDTAVYYCAGSQWLYGMDVWGQGTTVTVSSASTKGPSVFPLAPSSKSTSGGTAALGCLVKDYFPEPVTVSWNSGALTSGVHTFPAVLQSSGLYSLSSVVTVPSSSLGTQTYICNVNHKPSNTKVDKRVEPKSCDKTHTCPPCPAPELVGGPSVFLLPPKPKDTLMISRTPEVTCVVVDVSHEDPEVKFNWYVDGVEVHNAKTKPPEEQYNSTLRVVSVLTVLHQDWLNGKEYKCKVSNKALPAPIEKTISKAKGQPREPQVYTLPPSRDELTKNQVSLTCLVKGFYPSDIAVEWESNGQPENNYKTTPLVLDSDGSFFLYSKLTVDKSRWQQGNVFSCSVMHEALHNHYTQKSLSLSPG
light: DIQMTQSPSSLSASVGDRVTITCRSSQRIMTYLNWYQQKPGKAPKLLIYVGSHSQSGVPSRFRGSGSETDFTLTISGLQPEDSATYYCQQSFFTPLTFGGGTKVEIKRTVAAPSVFIFPPSDEQLKSGTASVVCLLNNFYPREAKVQWKVDNALQSGNSQESVTEQDSKDSTYSLSSTLTLSKADYEKHKVYACEVTHQGLSSPVTKSFNRGEC
notes: Fc mutated to increase effector functions
B3: anti-oxMIF antibody C0099 (antibody, human IgG1, kappa)
heavy: EVQLLESGGGLVQPGGSLRLSCAASGFTFSIYSMNWVRQAPGKGLEWVSSIGSSGGTTYYADSVKGRFTISRDNSKNTLYLQMNSLRAEDTAVYYCAGSQWLYGMDVWGQGTTVTVSSASTKGPSVFPLAPSSKSTSGGTAALGCLVKDYFPEPVTVSWNSGALTSGVHTFPAVLQSSGLYSLSSVVTVPSSSLGTQTYICNVNHKPSNTKVDKKVEPKSCDKTHTCPPCPAPELLGGPDVFLFPPKPKDTLMISRTPEVTCVVVDVSHEDPEVQFNWYVDGVEVHNAKTKPREEQFNSTFRVVSVLTVVHQDWLNGKEYKCKVSNKALPAPEEKTISKTKGQPREPQVYTLPPSREEMTKNQVSLTCLVKGFYPSDIAVEWESNGQPENNYKTTPPMLDSDGSFFLYSKLTVDKSRWQQGNVFSCSVMHEALHNHYTQKSLSLSPG
light: B2 light
notes: as for B2
B4: anti-oxMIF antibody C0078 (antibody, human IgG1, kappa)
heavy: not shown
light: B2 light
B5: anti-oxMIF antibody C0076 (antibody, human IgG1, kappa, V domains shown)
VH: B1 VH with L5Q
VL: B1 VL with F49Y, A51G
B6: anti-oxMIF antibody C0073 (antibody, human IgG1, kappa)
heavy: not shown
light: B2 light
B7: anti-oxMIF antibody C0077 (antibody, human IgG1, kappa, V domains shown)
VH: B1 VH with L5Q
VL: B1 VL with Y36F, F49Y, A51G
notes: Differs from C0076 only by Y36F in VL
B8: anti-oxMIF antibody C0090 (antibody, human IgG1, kappa)
heavy: not shown
light: B2 light with M30L, P80S
B9: anti-oxMIF antibody C0098 (antibody, human IgG1, kappa)
heavy: B3 heavy with K215R, H269F, Q275K, F297Y, F301Y, V310L, S325T, T340A, M398V
light: B2 light
notes: as for B2
B10: anti-oxMIF antibody C0097 (antibody, human IgG1, kappa)
heavy: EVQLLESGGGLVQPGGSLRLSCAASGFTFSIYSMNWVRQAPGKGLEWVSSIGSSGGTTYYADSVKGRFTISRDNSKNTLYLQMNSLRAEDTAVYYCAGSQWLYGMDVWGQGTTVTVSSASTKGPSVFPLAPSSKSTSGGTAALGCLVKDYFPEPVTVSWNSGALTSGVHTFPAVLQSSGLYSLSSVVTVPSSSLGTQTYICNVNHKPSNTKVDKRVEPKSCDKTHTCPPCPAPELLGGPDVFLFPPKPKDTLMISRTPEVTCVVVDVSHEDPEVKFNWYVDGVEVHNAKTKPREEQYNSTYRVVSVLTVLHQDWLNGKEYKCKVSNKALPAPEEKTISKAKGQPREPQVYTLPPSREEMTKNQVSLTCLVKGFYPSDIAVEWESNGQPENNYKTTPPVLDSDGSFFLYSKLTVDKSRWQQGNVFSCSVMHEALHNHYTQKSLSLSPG
light: B2 light
notes: as for B2
B11: anti-oxMIF antibody C0083 (antibody, human IgG1, kappa)
heavy: not shown
light: B2 light
B12: anti-oxMIF antibody C0108 (antibody, human IgG1, kappa)
heavy: B3 heavy with L5Q, W101Y
light: B2 light
notes: ADCC/ADCP enhancing mutations in the Fc portion
B13: anti-oxMIF antibody C0109 (antibody, human IgG1, kappa)
heavy: B3 heavy with L5Q, W101Y
light: B2 light with M30L, P80S
notes: as for B12

Each binder was assayed against T1, oxMIF: recombinant human MIF immobilized into ELISA plates (transforming MIF to oxMIF) (human, UniProt P14174 2-115) (assay: ELISA, antibody titrated on plate-immobilized recombinant human MIF (oxMIF), protein L-HRP; EC50 of 4-parameter fit given as KD, mean of two experiments).
T1 construct: Same polypeptide as redMIF; differs in conformation (oxMIF isoform); also called immobilized MIF; immobilized oxMIF
Description: (§1) Recombinant human MIF diluted in PBS at 1 μg/ml was immobilized into ELISA plates overnight at 4° C. (transforming MIF to oxMIF according to Thiele et al., 2015). After blocking, serial dilutions of anti-oxMIF antibodies were added to the plates. Finally, bound antibodies were detected using a protein L-HRP conjugate and tetramethylbenzidine (TMB) as substrate. The chromogenic reaction was stopped with 3M H₂SO₄ and OD was measured at 450 nm.

T1 sequence (P14174 2-115 limits assumed): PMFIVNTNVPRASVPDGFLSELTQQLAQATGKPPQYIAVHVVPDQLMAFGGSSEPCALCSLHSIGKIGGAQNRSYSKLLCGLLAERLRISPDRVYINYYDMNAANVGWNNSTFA

In order of falling Kd:
1. B7  5.2 nM
2. B4  1.6 nM
3. B5  1.1 nM
4. B6  1 nM
5. B10  0.8 nM
6. B1  0.7 nM
7. B9  0.7 nM
8. B2  0.5 nM
9. B8  0.5 nM
10. B11  0.5 nM
11. B3  0.4 nM

The binders below were run against T1, oxMIF: recombinant human MIF … (assay: ELISA, antibody titrated on plate-immobilized recombinant human MIF (oxMIF), goat anti-human IgG(Fc)-HRP; EC50 of 4-parameter fit given as KD, two experiments).
Description: as §1, with “with Goat anti-human IgG(Fc)-HRP” for “using a protein L-HRP”

In order of falling Kd:
1. B12  0.3 nM
2. B13  0.3 nM
3. B1  0.2 nM

What follows are binders tested against T2, Human oxMIF (human recombinant MIF treated with 0.2% Proclin300, oxMIF surrogate) (human, UniProt P14174 2-115, treated with 0.2% Proclin300 (active component 5-chloro-2-methyl-4-isothiazolin-3-one) for 3 h to transform MIF into an oxMIF surrogate) (assay: SPR (Biacore 3000), antibody amine-coupled to CM5 chip, Proclin300-treated MIF 50-150 nM as analyte, 1:1 Langmuir with mass transfer; mean of flow cells 2-4, SD +/-2.30 nM).
T2 construct: SPR analyte; also called Proclin300 treated MIF; soluble human oxMIF
Description: (§2) FC1 was used as reference cell and was only reacted with buffers. Mouse or human recombinant MIF were diluted in HBS-EP buffer (GE Healthcare) to concentrations of 50, 75, 100, or 150 nM in the presence of 0.2% Proclin300 (active component 5-chloro-2-methyl-4-isothiazolin-3-one; Sigma) to transform MIF into an oxMIF surrogate (Thiele M et al., 2015) for 3 h at room temperature. Proclin300 treated MIF was applied to immobilized anti-oxMIF antibodies at a flow rate of 30 μl/min for 3 min using a Biacore™ 3000 Instrument (GE Healthcare). Dissociation time was 300 seconds, and the chip was regenerated using 10 mM HCl for 3 minutes. The kinetics of the concentration series were analyzed by local simultaneous association/dissociation fitting of each binding curve after subtraction of background from the reference cell (FC1) using the iterative Langmuir 1:1 interaction model with mass transfer compensation provided by the BiaEvaluation 4.1 software (GE Healthcare). Data are represented as mean+/−SD (standard deviation) of the calculated KD values of Flow Cells 2-4.

T2 sequence (P14174 2-115 limits assumed): as above

Binder B12 has a Kd of 6.06 nM.

These binders were tested against T2, Human oxMIF (human recombinant MIF …) (assay: SPR (Biacore 3000), antibody amine-coupled to CM5 chip, Proclin300-treated MIF 50-150 nM as analyte, 1:1 Langmuir with mass transfer; mean of flow cells 2-4, SD +/-0.38 nM).
Description: as §2

B1 gave a Kd of 3.49 nM.

The binders below were run against T1, oxMIF: recombinant human MIF … (assay: ELISA on plate-immobilized recombinant human MIF (oxMIF)).
Description: as §1

In the case of B7, the “fold reduction in affinity compared to C0076” value is reported as 5 fold.

The binders below were run against T2, Human oxMIF (human recombinant MIF …) (assay: SPR (Biacore 3000), antibody amine-coupled to CM5 chip, Proclin300-treated MIF 50-150 nM as analyte, 1:1 Langmuir with mass transfer; mean of flow cells 2-4, SD +/-0.83 nM).
Description: as §2

With B13 the Kd was 3.69 nM.

— patent US20230365671A1 (ONCOONE RESEARCH AND DEVELOPMENT, published 2023)
